According to paper PMC12876990, “Targeting secreted PLA2 interactions with EGFR and vimentin to arrest prostate tumour growth” (Cell Death & Disease, 2025):
Square brackets hold non-standard residues; d marks the D form. 2Nal = N[C@@H](Cc1ccc2ccccc2c1)C(=O)O

Biological target: T1, vimentin coil 2 (purified fragment)
T1 construct: vimentin, coil 2 fragment, purified; PDB 3TRT was used only for docking; also called second coil of vimentin; source: purified
Test: ELISA; competition enzyme immunoassay: vimentin coil 2 coated on the plate (15 µg/mL); hGIIA 100 ng/mL in PBS with 0.1% BSA mixed with c2 0.1-100 µM in DMSO, 37 °C, 2 h; detected with 4A1-alkaline phosphatase
Conditions: both partners purified

B1: c2 (cyclo-((2-Nal)-Leu-Ser-(2-Nal)-Arg)) (peptide)
chain: cyclo([2Nal]LS[2Nal]R)
SMILES: CC(C)C[C@@H]1NC(=O)[C@H](Cc2ccc3ccccc3c2)NC(=O)[C@H](CCCNC(=N)N)NC(=O)[C@H](Cc2ccc3ccccc3c2)NC(=O)[C@H](CO)NC1=O
B1 was tested, and the IC50 was 56.5 µM.
